Laboratory results from publication PMC3229523, “Identification of Lactoferricin B Intracellular Targets Using an Escherichia coli Proteome Chip” (PLoS ONE, 2011).
Ends that are not written are not given here. * marks the point of attachment. Biotin = O=C1N[C@H]2[C@H](CS[C@H]2CCCCC(=O)*)N1

How the values were obtained:
Assay in all cases: peptide or protein array; E. coli proteome chip: purified His-tagged proteins printed in duplicate on Fullmoon slides, blocked with 1% BSA; 10 nM N-terminal biotinylated LfcinB with 1% BSA, room temperature, 1 h; detected with DyLight 649-labeled streptavidin, ratio to DyLight 549-labeled anti-His antibody; ProCAT normalisation, local cut-off; triplicate chips
Details in all cases: both partners purified
RhaD = target: T1, RhaD (E. coli K-12, UniProt P32169 1-274)
T1 construct: RhaD, E. coli K-12
T1 sequence (looked up): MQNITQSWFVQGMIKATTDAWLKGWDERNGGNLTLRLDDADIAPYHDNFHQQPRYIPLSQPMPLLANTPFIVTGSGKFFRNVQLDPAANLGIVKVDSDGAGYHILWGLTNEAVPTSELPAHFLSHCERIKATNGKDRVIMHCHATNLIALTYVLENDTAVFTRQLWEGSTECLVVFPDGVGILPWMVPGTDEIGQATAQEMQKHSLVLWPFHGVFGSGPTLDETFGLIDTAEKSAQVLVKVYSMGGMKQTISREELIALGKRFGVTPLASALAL

HyaE = target: T2, HyaE (E. coli K-12, UniProt P19931 1-132)
T2 construct: HyaE, E. coli K-12
T2 sequence (looked up): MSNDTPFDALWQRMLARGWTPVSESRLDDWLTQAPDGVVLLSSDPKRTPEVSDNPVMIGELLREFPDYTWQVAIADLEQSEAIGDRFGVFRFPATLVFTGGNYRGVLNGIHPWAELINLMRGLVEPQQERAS

YqcA = target: T3, YqcA (E. coli K-12, UniProt P65367 1-149)
T3 construct: YqcA, E. coli K-12
T3 sequence (looked up): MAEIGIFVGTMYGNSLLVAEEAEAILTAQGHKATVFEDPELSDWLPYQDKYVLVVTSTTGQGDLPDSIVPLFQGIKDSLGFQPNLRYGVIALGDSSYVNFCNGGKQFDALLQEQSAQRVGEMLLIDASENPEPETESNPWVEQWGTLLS

YfiQ = target: T4, YfiQ (E. coli K-12, UniProt P76594 1-886)
T4 construct: YfiQ, E. coli K-12
T4 sequence (looked up): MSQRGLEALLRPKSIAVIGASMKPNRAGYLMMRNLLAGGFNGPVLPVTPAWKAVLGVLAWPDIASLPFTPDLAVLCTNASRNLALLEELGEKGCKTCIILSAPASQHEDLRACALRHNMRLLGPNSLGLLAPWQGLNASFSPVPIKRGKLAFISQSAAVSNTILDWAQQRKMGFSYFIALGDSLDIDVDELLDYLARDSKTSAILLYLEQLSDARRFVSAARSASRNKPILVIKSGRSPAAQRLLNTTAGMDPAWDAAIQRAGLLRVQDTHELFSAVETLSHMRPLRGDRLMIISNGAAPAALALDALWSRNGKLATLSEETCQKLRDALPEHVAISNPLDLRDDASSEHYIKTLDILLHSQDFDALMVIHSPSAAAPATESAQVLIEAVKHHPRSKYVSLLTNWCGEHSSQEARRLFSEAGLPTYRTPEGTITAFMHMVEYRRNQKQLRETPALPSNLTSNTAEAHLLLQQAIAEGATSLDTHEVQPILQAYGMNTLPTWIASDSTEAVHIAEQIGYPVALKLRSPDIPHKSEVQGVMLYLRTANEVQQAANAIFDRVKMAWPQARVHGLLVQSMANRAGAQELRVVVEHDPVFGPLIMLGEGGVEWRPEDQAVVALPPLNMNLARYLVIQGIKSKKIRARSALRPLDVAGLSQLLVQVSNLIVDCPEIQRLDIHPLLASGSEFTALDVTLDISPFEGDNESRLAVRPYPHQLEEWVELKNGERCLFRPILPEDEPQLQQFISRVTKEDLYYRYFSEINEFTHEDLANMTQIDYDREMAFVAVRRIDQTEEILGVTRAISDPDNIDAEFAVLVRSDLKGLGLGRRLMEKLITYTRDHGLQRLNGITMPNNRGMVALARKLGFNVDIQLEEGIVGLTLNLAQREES

EnvR = target: T5, EnvR (E. coli K-12, UniProt P0ACT2 1-220)
T5 construct: EnvR, E. coli K-12
T5 sequence (looked up): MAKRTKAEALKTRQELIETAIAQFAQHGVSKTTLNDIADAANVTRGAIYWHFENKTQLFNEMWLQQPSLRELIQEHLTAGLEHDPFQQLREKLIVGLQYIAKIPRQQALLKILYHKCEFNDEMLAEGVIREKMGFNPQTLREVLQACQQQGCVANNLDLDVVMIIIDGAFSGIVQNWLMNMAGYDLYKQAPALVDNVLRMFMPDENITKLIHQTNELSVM

Measured: binding result

B1: N-terminal biotinylated Lactoferricin B (peptide, UniProt P24627 36-60, looked up)
peptide: Biotin-FKCRRWQWRMKKLGAPSITCVRRAF
modifications: ends and bridges not checked
notes: lactoferricin B (LfcinB), cationic antimicrobial peptide of 25 amino acids; also called biotinylated LfcinB; biotin-labeled LfcinB; source: bought: Kelowna Inc
binds: RhaD | HyaE | YqcA | YfiQ | EnvR
